Results reported in article PMC11137577, “Unusual OB-fold protein PrgE and its role in conjugation”.

T1: PrgE WT (Enterococcus faecalis (plasmid pCF10), UniProt D1LHE9 1-144)
T1 sequence: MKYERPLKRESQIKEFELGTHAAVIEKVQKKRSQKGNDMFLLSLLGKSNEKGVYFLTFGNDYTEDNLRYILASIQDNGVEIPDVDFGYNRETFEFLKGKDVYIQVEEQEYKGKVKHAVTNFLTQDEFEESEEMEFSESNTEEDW

B1: Poly-A 60-mer (ssDNA)
DNA: AAAAAAAAAAAAAAAAAAAAAAAAAAAAAAAAAAAAAAAAAAAAAAAAAAAAAAAAAAAA
B2: 30-mer dsDNA (dsDNA)
DNA 1: CAGTGACAGTCTCCACGGTGAAGCAGTCGT
DNA 2: ACGACTGCTTCACCGTGGAGACTGTCACTG
B3: 60-mer ssDNA (ssDNA)
DNA: CAGTGACAGTCTCCACGGTGAAGCAGTCGTACCTCTTGACGCATGAATAGATATATGTTA
B4: 60-mer dsDNA (dsDNA)
DNA 1: B3 DNA
DNA 2: TAACATATATCTATTCATGCGTCAAGAGGTACGACTGCTTCACCGTGGAGACTGTCACTG

Tests used:
[1] = biological target: PrgE (Enterococcus faecalis (plasmid pCF10)); assay: SEC-MALS; 60 μM PrgE, Superdex 200 Increase 10/300 GL, 20 mM Hepes pH 7.5, 300 mM NaCl
[2] = biological target: T1, PrgE WT; assay: X-ray crystal structure; 15% PEG 400, 50 mM MES pH 6.5, 80 mM Mg acetate, 15 mM MgCl2; 5 nt per subunit; 20 mM Hepes pH 7.5, 50 or 100 mM NaCl, 10 nM FITC-DNA, 0-20 uM protein, 30 min at RT; conditions: protein: recombinant; tags: C-terminal 10xHis removed with 3C (PreScission) protease; chain copies: 3; single strand
[3] = biological target: ΔN-PrgE (Enterococcus faecalis (plasmid pCF10), UniProt D1LHE9 13-144, del1-12); assay: fluorescence anisotropy; 50 mM NaCl; 20 mM Hepes pH 7.5, 50 or 100 mM NaCl, 10 nM FITC-DNA, 0-20 uM protein, 30 min at RT; conditions: protein: recombinant, tags: C-terminal 10xHis removed with 3C (PreScission) protease
[4] = biological target: T1, PrgE WT; assay: as above; conditions: protein: recombinant, tags: C-terminal 10xHis removed with 3C (PreScission) protease, chain copies: 3
[5] = biological target: T1, PrgE WT; assay: fluorescence anisotropy; 100 mM NaCl; 20 mM Hepes pH 7.5, 50 or 100 mM NaCl, 10 nM FITC-DNA, 0-20 uM protein, 30 min at RT; conditions: protein: recombinant, tags: C-terminal 10xHis removed with 3C (PreScission) protease, chain copies: 3
[6] = biological target: T1, PrgE WT; assay: fluorescence anisotropy; 50 mM NaCl; quadratic fit (Hill coefficient ca 1.5 in Hill fit); 20 mM Hepes pH 7.5, 50 or 100 mM NaCl, 10 nM FITC-DNA, 0-20 uM protein, 30 min at RT; conditions: protein: recombinant; tags: C-terminal 10xHis removed with 3C (PreScission) protease; chain copies: 3; label: 5' FITC; single strand
[7] = label: 5' FITC on strand 1, blunt

| Molecule | Kd ([3]; label: 5' FITC, single strand) [nM] | Kd ([5]; label: 5' FITC, single strand) [nM] | Kd [3, 7] [nM] | Kd [4, 7] [nM] | Kd [5, 7] [nM] | further results |
| --- | --- | --- | --- | --- | --- | --- |
| PrgE (natural protein) | – | – | – | – | – | stoichiometry N [1]: 3 |
| B1 | – | – | – | – | – | binding result [2]: binds |
| CAGTGACAGTCTCCACGGTGAAGCAGTCGT (ssDNA) [30-mer ssDNA] | 3850 ± 490 | 1840 ± 150 | – | – | – | Kd ([4]; label: 5' FITC, single strand): 1020 ± 20 nM |
| B2 | – | – | 4390 ± 240 | 1960 ± 260 | 3360 ± 280 | – |
| B3 | 4490 ± 480 | 370 ± 10 | – | – | – | Kd [6]: 330 ± 20 nM |
| B4 | – | – | 5560 ± 190 | 500 ± 140 | 950 ± 30 | – |
